This passage reports Kd results from publication PMC4207752 (2014).

In this assay the target is F-actin (skeletal muscle) (Oryctolagus cuniculus, UniProt P68135). The assay is described as follows: co-sedimentation assay.

One may read the Kd as the concentration at which binding is half-saturated. A higher Kd goes with weaker binding.

B1: dystrophin N-ABD K18N 1-246 (protein)
chain: MLWWEEVEDCYEREDVQNKTFTKWVNAQFSKFGKQHIENLFSDLQDGRRLLDLLEGLTGQKLPKEKGSTRVHALNNVNKALRVLQNNNVDLVNIGSTDIVDGNHKLTLGLIWNIILHWQVKNVMKNIMAGLQQTNSEKILLSWVRQSTRNYPQVNVINFTTSWSDGLALNALIHSHRPDLFDWNSVVCQQSATQRLEHAFNIARYQLGIEKLLDPEDVDTTYPDKKSILMYITSLFQVLPQQVSIE
B1 registered a Kd of roughly 45 µM.
